Paper PMC5452487

Assays:
Conditions in all cases: EMSA with 0.75 ug rArcR-ACME and 61.2 pmol biotinylated probe; buffer, salt, pH and temperature not given in the material
[1] = molecular target: T1, rArcR-ACME (Staphylococcus aureus USA300_FPR3757) (UniProt E9KNS2); assay: competition
T1 sequence: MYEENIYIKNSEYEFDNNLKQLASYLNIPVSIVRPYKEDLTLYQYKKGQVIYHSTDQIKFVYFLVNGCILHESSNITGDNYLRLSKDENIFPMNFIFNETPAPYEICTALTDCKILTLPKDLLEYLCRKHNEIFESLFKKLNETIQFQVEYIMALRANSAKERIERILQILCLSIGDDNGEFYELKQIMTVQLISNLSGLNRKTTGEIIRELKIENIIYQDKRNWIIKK

[2] = molecular target: T1, rArcR-ACME (Staphylococcus aureus USA300_FPR3757); assay: UV cross-linking
[3] = molecular target: T1, rArcR-ACME (Staphylococcus aureus USA300_FPR3757); assay: EMSA

Sequence	binding [1]	binding [2]	binding [3]
CAAATGATCACAGCATTTGGTACAGGAATCGGTGGCGACTTTGATCTAGCGAAAGCAAGATATCACAAAATCGTCATTATGACTGATGCCG (double strand) [gyrB fragment, non-specific competitor, 91 bp]	no binding	–	–
GTACAAAATACATATTCATACAAAATTTTGCATTGAATAAATCTATATATGTGAAAACCCTCCCTAAACAATTGTGAATTAAATCACACGATGTTTTTTGAAAGCGTTTTATAATGTGAATGT (double strand) [arcACME promoter fragment, unlabelled specific competitor]	binds	–	–
GTACAAAATACATATTCATACAAAATTTTGCATTGAATAAATCTATATATGTGAAAACCCTCCCTAAACAATTGTGAATTAAATCACACGATGTTTTTTGAAAGCGTTTTATAATGTGAATGT (double strand) [arcACME promoter probe, 123 bp]	–	binds	binds
